Where two headings read alike, the source gives them in different places. Starred links: 1 amine or outer side, 2 acyl side, 3 side chain; linkers in the order of their positions; H or OH if unused. Non-standard residues stand in square brackets, D forms with d. No end group written: not given here. *: point of attachment. Ala(2-Qui) = 2-quinolylalanine, O=C([C@H](Cc1ccc2ccccc2n1)N[*:1])[*:2]; Phe(3,4-Cl2) = N[C@@H](Cc1ccc(Cl)c(Cl)c1)C(=O)O; 2Nal = N[C@@H](Cc1ccc2ccccc2c1)C(=O)O; Arg(Me) = CNC(=N)NCCC[C@H](N)C(=O)O; Bta = N[C@@H](Cc1csc2ccccc12)C(=O)O; Fmoc = O=C(OCC1c2ccccc2-c2ccccc21)*; Cha = N[C@@H](CC1CCCCC1)C(=O)O; Abu = CC[C@H](N)C(=O)O; azaGly = NNC(=O)O
What was measured:
[1] = target: T1, human OT7T175 (metastin receptor) (human, UniProt Q969F8 1-398); assay: cell-based or functional assay
[2] = target: T1, human OT7T175 (metastin receptor); assay: competition with Cy-5 metastin (40-54) on hOT7T175-CHO cells, FMAT
[3] = target: T1, human OT7T175 (metastin receptor); assay: cell-based or functional assay; remark: listed apart in the source
[4] = target: T1, human OT7T175 (metastin receptor); assay: cell-based or functional assay; remark: listed apart in the source

T1 sequence (Q969F8 whole entry L364H): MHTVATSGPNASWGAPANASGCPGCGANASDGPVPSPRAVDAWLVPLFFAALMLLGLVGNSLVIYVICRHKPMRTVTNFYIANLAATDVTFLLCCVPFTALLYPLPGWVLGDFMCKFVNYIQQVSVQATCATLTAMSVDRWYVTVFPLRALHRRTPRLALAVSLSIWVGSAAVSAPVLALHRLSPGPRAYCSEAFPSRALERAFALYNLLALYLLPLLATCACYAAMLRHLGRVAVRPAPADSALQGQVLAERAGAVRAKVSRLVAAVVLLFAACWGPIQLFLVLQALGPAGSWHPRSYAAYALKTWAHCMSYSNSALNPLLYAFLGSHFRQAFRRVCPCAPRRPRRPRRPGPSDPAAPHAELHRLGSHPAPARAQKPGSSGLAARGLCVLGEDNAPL

B1: [Ala(2-Qui)10]MS10 (peptide)
peptide: YNWNSFGLR[Ala(2-Qui)]-NH2
modifications: N-terminus assumed
SMILES: CC(C)C[C@H](NC(=O)CNC(=O)[C@H](Cc1ccccc1)NC(=O)[C@H](CO)NC(=O)[C@H](CC(N)=O)NC(=O)[C@H](Cc1c[nH]c2ccccc12)NC(=O)[C@H](CC(N)=O)NC(=O)[C@@H](N)Cc1ccc(O)cc1)C(=O)N[C@@H](CCCNC(=N)N)C(=O)N[C@@H](Cc1ccc2ccccc2n1)C(N)=O
notes: also called Compound No. 201
- Ca ion level-increasing activity (FLIPR) [1]: 1 x Metastin (1-54)
- IC50 [2]: 820 nM

B2: [D-Tyr1,Ala4,Arg(Me)9]MS10 (peptide)
peptide: [dY]NWASFGL[Arg(Me)]F-NH2
modifications: N-terminus assumed
SMILES: CNC(=N)NCCC[C@H](NC(=O)[C@H](CC(C)C)NC(=O)CNC(=O)[C@H](Cc1ccccc1)NC(=O)[C@H](CO)NC(=O)[C@H](C)NC(=O)[C@H](Cc1c[nH]c2ccccc12)NC(=O)[C@H](CC(N)=O)NC(=O)[C@H](N)Cc1ccc(O)cc1)C(=O)N[C@@H](Cc1ccccc1)C(N)=O
notes: also called Compound No. 210
- Ca ion level-increasing activity (FLIPR) [1]: 1 x Metastin (1-54)
- Ca ion level-increasing activity (FLIPR, 40 s) [3]: 9.3 EC50/MS10 EC50
- IC50 [2]: 730 nM

B3: [D-Tyr1,Ile3,Arg(Me)9]MS10 (peptide)
peptide: [dY]NINSFGL[Arg(Me)]F-NH2
modifications: N-terminus assumed
SMILES: CC[C@H](C)[C@H](NC(=O)[C@H](CC(N)=O)NC(=O)[C@H](N)Cc1ccc(O)cc1)C(=O)N[C@@H](CC(N)=O)C(=O)N[C@@H](CO)C(=O)N[C@@H](Cc1ccccc1)C(=O)NCC(=O)N[C@@H](CC(C)C)C(=O)N[C@@H](CCCNC(=N)NC)C(=O)N[C@@H](Cc1ccccc1)C(N)=O
notes: also called Compound No. 206
- Ca ion level-increasing activity (FLIPR) [1]: 10 x Metastin (1-54)
- Ca ion level-increasing activity (FLIPR, 40 s) [3]: 4.8 EC50/MS10 EC50
- IC50 [2]: 85 nM

B4: [D-Tyr1,Thr5,Arg(Me)9]MS10 (peptide)
peptide: [dY]NWNTFGL[Arg(Me)]F-NH2
modifications: N-terminus assumed
SMILES: CNC(=N)NCCC[C@H](NC(=O)[C@H](CC(C)C)NC(=O)CNC(=O)[C@H](Cc1ccccc1)NC(=O)[C@@H](NC(=O)[C@H](CC(N)=O)NC(=O)[C@H](Cc1c[nH]c2ccccc12)NC(=O)[C@H](CC(N)=O)NC(=O)[C@H](N)Cc1ccc(O)cc1)[C@@H](C)O)C(=O)N[C@@H](Cc1ccccc1)C(N)=O
notes: also called Compound No. 211
- Ca ion level-increasing activity (FLIPR) [1]: 10 x Metastin (1-54)
- Ca ion level-increasing activity (FLIPR, 40 s) [3]: 1.3 EC50/MS10 EC50
- IC50 [2]: 44 nM

B5: [D-Tyr1,Ala5,Arg(Me)9]MS10 (peptide)
peptide: [dY]NWNAFGL[Arg(Me)]F-NH2
modifications: N-terminus assumed
SMILES: CNC(=N)NCCC[C@H](NC(=O)[C@H](CC(C)C)NC(=O)CNC(=O)[C@H](Cc1ccccc1)NC(=O)[C@H](C)NC(=O)[C@H](CC(N)=O)NC(=O)[C@H](Cc1c[nH]c2ccccc12)NC(=O)[C@H](CC(N)=O)NC(=O)[C@H](N)Cc1ccc(O)cc1)C(=O)N[C@@H](Cc1ccccc1)C(N)=O
- Ca ion level-increasing activity (FLIPR) [1]: 10 x Metastin (1-54)
- Ca ion level-increasing activity (FLIPR, 40 s) [3]: 1.1 EC50/MS10 EC50
- IC50 [2]: 36 nM

B6: [D-Tyr1,Arg(Me)9,Trp10]MS10 (peptide)
peptide: [dY]NWNSFGL[Arg(Me)]W-NH2
modifications: N-terminus assumed
SMILES: CNC(=N)NCCC[C@H](NC(=O)[C@H](CC(C)C)NC(=O)CNC(=O)[C@H](Cc1ccccc1)NC(=O)[C@H](CO)NC(=O)[C@H](CC(N)=O)NC(=O)[C@H](Cc1c[nH]c2ccccc12)NC(=O)[C@H](CC(N)=O)NC(=O)[C@H](N)Cc1ccc(O)cc1)C(=O)N[C@@H](Cc1c[nH]c2ccccc12)C(N)=O
notes: also called Compound No. 174
- Ca ion level-increasing activity (FLIPR) [1]: 10 x Metastin (1-54)
- Ca ion level-increasing activity (FLIPR, 40 s) [3]: 2.3 EC50/MS10 EC50
- IC50 [2]: 420 nM

Binder: [dY]NWTSFGL[Arg(Me)]F-NH2 (also called Compound No. 208) [[D-Tyr1,Thr4,Arg(Me)9]MS10]
- Ca ion level-increasing activity (FLIPR) [1]: 1 x Metastin (1-54)
- Ca ion level-increasing activity (FLIPR, 40 s) [3]: 7.3 EC50/MS10 EC50
- IC50 [2]: 830 nM

Binder: YNWNSFGLR[Phe(3,4-Cl2)]-NH2 (also called Compound No. 199) [[Phe(3,4Cl2)10]MS10]
- Ca ion level-increasing activity (FLIPR) [1]: 3 x Metastin (1-54)
- IC50 [2]: 470 nM

Binder: Fmoc-NSFGLRF-NH2 [des(1-3)-Fmoc-MS10]
- Ca ion level-increasing activity (FLIPR) [4]: 1 x Metastin (1-54)

B7: [Abu8]MS10 (peptide)
peptide: YNWNSFG[Abu]RF-NH2
modifications: N-terminus assumed
SMILES: CC[C@H](NC(=O)CNC(=O)[C@H](Cc1ccccc1)NC(=O)[C@H](CO)NC(=O)[C@H](CC(N)=O)NC(=O)[C@H](Cc1c[nH]c2ccccc12)NC(=O)[C@H](CC(N)=O)NC(=O)[C@@H](N)Cc1ccc(O)cc1)C(=O)N[C@@H](CCCNC(=N)N)C(=O)N[C@@H](Cc1ccccc1)C(N)=O
notes: also called Compound No. 187
- Ca ion level-increasing activity (FLIPR) [1]: 1 x Metastin (1-54)
- Ca ion level-increasing activity (FLIPR, 40 s) [3]: 1.9 EC50/MS10 EC50
- IC50 [2]: 720 nM

B8: [D-Tyr1,Cha3,6,Arg(Me)9,Trp10]MS10 (peptide)
peptide: [dY]N[Cha]NS[Cha]GL[Arg(Me)]W-NH2
modifications: N-terminus assumed
SMILES: CNC(=N)NCCC[C@H](NC(=O)[C@H](CC(C)C)NC(=O)CNC(=O)[C@H](CC1CCCCC1)NC(=O)[C@H](CO)NC(=O)[C@H](CC(N)=O)NC(=O)[C@H](CC1CCCCC1)NC(=O)[C@H](CC(N)=O)NC(=O)[C@H](N)Cc1ccc(O)cc1)C(=O)N[C@@H](Cc1c[nH]c2ccccc12)C(N)=O
notes: also called Compound No. 182
- Ca ion level-increasing activity (FLIPR) [1]: 5 x Metastin (1-54)
- IC50 [2]: 98 nM

Binder: [dY]NWNSF[azaGly]L[Arg(Me)]F-NH2 (also called Compound No. 232) [[D-Tyr1,AzaGly7,Arg(Me)9]MS10]
- Ca ion level-increasing activity (FLIPR) [1]: 3 x Metastin (1-54)
- Ca ion level-increasing activity (FLIPR, 40 s) [3]: 3.9 EC50/MS10 EC50
- IC50 [2]: 49 nM

Binder: [dY][2Nal]NSF[azaGly]L[Arg(Me)]F-NH2 (also called Compound No. 255) [des(1)-[D-Tyr2,Nal(2)3,AzaGly7,Arg(Me)9]MS10]
- Ca ion level-increasing activity (FLIPR) [1]: 1 x Metastin (1-54)
- IC50 [2]: 33 nM

Binder: YKWNSFGLRF-NH2 [[Lys2]MS10]
- Ca ion level-increasing activity (FLIPR) [4]: 1 x Metastin (1-54)

B9: [Ala(3-Bzt)10]MS10 (peptide)
peptide: YNWNSFGLR[Bta]-NH2
modifications: N-terminus assumed
SMILES: CC(C)C[C@H](NC(=O)CNC(=O)[C@H](Cc1ccccc1)NC(=O)[C@H](CO)NC(=O)[C@H](CC(N)=O)NC(=O)[C@H](Cc1c[nH]c2ccccc12)NC(=O)[C@H](CC(N)=O)NC(=O)[C@@H](N)Cc1ccc(O)cc1)C(=O)N[C@@H](CCCNC(=N)N)C(=O)N[C@@H](Cc1csc2ccccc12)C(N)=O
notes: also called Compound No. 189
- Ca ion level-increasing activity (FLIPR) [1]: 10 x Metastin (1-54)
- IC50 [2]: 230 nM

B10: des(1)-[D-Tyr2,D-Trp3,AzaGly7,Arg(Me)9]MS10 (peptide)
peptide: [dY][dW]NSF[azaGly]L[Arg(Me)]F-NH2
modifications: N-terminus assumed
SMILES: CNC(=N)NCCC[C@H](NC(=O)[C@H](CC(C)C)NC(=O)NNC(=O)[C@H](Cc1ccccc1)NC(=O)[C@H](CO)NC(=O)[C@H](CC(N)=O)NC(=O)[C@@H](Cc1c[nH]c2ccccc12)NC(=O)[C@H](N)Cc1ccc(O)cc1)C(=O)N[C@@H](Cc1ccccc1)C(N)=O
notes: also called Compound No. 242
- Ca ion level-increasing activity (FLIPR) [1]: 2 x Metastin (1-54)
- Ca ion level-increasing activity (FLIPR, 40 s) [3]: 1.4 EC50/MS10 EC50
- IC50 [2]: 70 nM

B11: des(1)-[D-Tyr2,Arg(Me)9]MS10 (peptide)
peptide: [dY]WNSFGL[Arg(Me)]F-NH2
modifications: N-terminus assumed
SMILES: CNC(=N)NCCC[C@H](NC(=O)[C@H](CC(C)C)NC(=O)CNC(=O)[C@H](Cc1ccccc1)NC(=O)[C@H](CO)NC(=O)[C@H](CC(N)=O)NC(=O)[C@H](Cc1c[nH]c2ccccc12)NC(=O)[C@H](N)Cc1ccc(O)cc1)C(=O)N[C@@H](Cc1ccccc1)C(N)=O
notes: also called Compound No. 217
- Ca ion level-increasing activity (FLIPR) [1]: 20 x Metastin (1-54)
- Ca ion level-increasing activity (FLIPR, 40 s) [3]: 3.1 EC50/MS10 EC50
- IC50 [2]: 250 nM

Binder: [dY]TNSF[azaGly]L[Arg(Me)]F-NH2 (also called Compound No. 241) [des(1)-[D-Tyr2,Thr3,AzaGly7,Arg(Me)9]MS10]
- Ca ion level-increasing activity (FLIPR) [1]: 1 x Metastin (1-54)
- Ca ion level-increasing activity (FLIPR, 40 s) [3]: 5.3 EC50/MS10 EC50
- IC50 [2]: 56 nM

Binder: YNWNSFGARF-NH2 [[Ala8]MS10]
- Ca ion level-increasing activity (FLIPR) [4]: 1 x Metastin (1-54)

B12: [D-Tyr1,Cha3,AzaGly7,Arg(Me)9]MS10 (peptide)
peptide: [dY]N[Cha]NSF[azaGly]L[Arg(Me)]F-NH2
modifications: N-terminus assumed
SMILES: CNC(=N)NCCC[C@H](NC(=O)[C@H](CC(C)C)NC(=O)NNC(=O)[C@H](Cc1ccccc1)NC(=O)[C@H](CO)NC(=O)[C@H](CC(N)=O)NC(=O)[C@H](CC1CCCCC1)NC(=O)[C@H](CC(N)=O)NC(=O)[C@H](N)Cc1ccc(O)cc1)C(=O)N[C@@H](Cc1ccccc1)C(N)=O
notes: also called Compound No. 190
- Ca ion level-increasing activity (FLIPR) [1]: 10 x Metastin (1-54)
- IC50 [2]: 12 nM

B13: des(1)-[D-Tyr2,AzaGly7,Arg(Me)9]MS10 (peptide)
peptide: [dY]WNSF[azaGly]L[Arg(Me)]F-NH2
modifications: N-terminus assumed
SMILES: CNC(=N)NCCC[C@H](NC(=O)[C@H](CC(C)C)NC(=O)NNC(=O)[C@H](Cc1ccccc1)NC(=O)[C@H](CO)NC(=O)[C@H](CC(N)=O)NC(=O)[C@H](Cc1c[nH]c2ccccc12)NC(=O)[C@H](N)Cc1ccc(O)cc1)C(=O)N[C@@H](Cc1ccccc1)C(N)=O
notes: also called Compound No. 222
- Ca ion level-increasing activity (FLIPR) [1]: 10 x Metastin (1-54)
- Ca ion level-increasing activity (FLIPR, 40 s) [3]: 2.7 EC50/MS10 EC50
- IC50 [2]: 33 nM

B14: Metastin (peptide)
peptide: GTSLSPPPESSGSRQQPGLSAPHSRQIPAPQGAVLVQREKDLPNYNWNSFGLRF
- Ca ion level-increasing activity (FLIPR) [4]: 1 x Metastin (1-54)

Binder: Fmoc-NWNSFGLRF-NH2 [des(1)-Fmoc-MS10]
- Ca ion level-increasing activity (FLIPR) [4]: 5 x Metastin (1-54)

Binder: YNWNSXGLRF (D-Tyr1; Cha6; Arg(Me)9; C-terminal amide, also called Compound No. 203) [[D-Tyr1,Cha6,Arg(Me)9]MS10]
- Ca ion level-increasing activity (FLIPR) [1]: 10 x Metastin (1-54)
- IC50 [2]: 37 nM

Binder: SNWNSFGLRF-NH2 [[Ser1]MS10]
- Ca ion level-increasing activity (FLIPR) [4]: 1 x Metastin (1-54)

Binder: [dY][dW]NSFGL[Arg(Me)]F-NH2 (also called Compound No. 224) [des(1)-[D-Tyr2,D-Trp3,Arg(Me)9]MS10]
- Ca ion level-increasing activity (FLIPR) [1]: 2 x Metastin (1-54)
- IC50 [2]: 140 nM

From US20090298765A1 (Takeda / Millennium, published 2009)
